This is an account of results in patent EP4814014A1, “BINDING MOLECULE AND ANTIBODY-DRUG CONJUGATE AND USE THEREOF” (priority 2023, dated 2025).

Test [1] has as its system EBC-1. Put plainly: Cell killing assay of ADCs (CCK8), EBC-1. The class given is cell-based, human. Conditions: Table 10A; Target cell: EBC-1; 3-5 days. The method, then:
Killing of target cells MDA-MB-468, EBC-1, and NCI-H1975 cells (Cell Bank of the Chinese Academy of Sciences) by the ADC molecules formed by conjugating the […] anti-EGFR/cMet antibody molecules described above to a toxin was assayed by the […].
The cells (100 µL, 1 × 10^4) resuspended in a cell culture medium were seeded into each well of a 96-well plate and cultured in an incubator at 37 °C with 5% CO2 overnight. The next day, 100 µL of serially diluted V-20-Fc-PEG-EVC-MMAE, V-23-Fc-PEG-EVC-MMAE, and V-26-Fc-PEG-EVC-MMAE, as well as positive control ADCs ABBV399 and AZD9592 were added to corresponding wells. The cells were cultured for another 3-5 days. Then, 20 µL of CCK8 (Shanghai Life iLab Biotech, Cat. No. AC11L054) was added to each well. The mixtures were cultured in an incubator at 37 °C with 5% CO2 until color development. The absorbance at 450 nm was recorded using a microplate reader (Molecular Device, SpectraMax M5).
The cell viability was calculated by the following formula: percentage cell viability = [(As - Ab) / (Ac - Ab)] × 100. As = experimental well absorbance (cells, culture medium, CCK8, and ADCs); Ab = blank well absorbance (culture medium and CCK8); Ac = control well absorbance (cells, culture medium, and CCK8).

For test [2], the target named is T1, human cMet on cells (human, UniProt P08581 25-1390).
T1 construct: whole, on cells; Cell lines: CHO-S-cMet, CHOK1-hucMet, EBC-1, MKN45, NCI-H1975; the cell line is named under assay; also called CHO-S-cMet; CHOK1-hucMet
The test can be described thus: FACS competition on EBC-1 cells, HGF-His as the ligand detected, VHH-Fc from 100 nM.

The target in test [3] is T2, Cynomolgus monkey cMet antigen (cynomolgus monkey, UniProt A0A2K5UM36 25-932).
T2 construct: treated as one molecule; also called cynomolgus monkey cMet-His antigen; Cyno cMet
The test can be described thus: ELISA, antigen coated at 1 ug/mL, VHH-Fc titrated.

Test [4] concerns the target T3, Human cMet antigen (human, UniProt P08581 25-932).
T3 construct: treated as one molecule; also called Human cMet-His antigen
Put plainly: ELISA, antigen coated at 1 ug/mL, VHH-Fc titrated.

Test [5] deals with T1, human cMet on cells. The test can be described thus: FACS, VHH-His on MKN45 cells. A general note: Flow cytometry measures light scatter and fluorescence of single cells or particles in a stream.
Test [6] has as its target T1, human cMet on cells. The test can be described thus: FACS on EBC-1 cells.
Test [7] concerns the target T1, human cMet on cells. Put plainly: FACS, VHH-His on CHOK1-hucMet cells.
Test [8] deals with T1, human cMet on cells. Put plainly: FACS, VHH-His on MKN45 cells. The source holds these as a separate data set.
Test [9] concerns the target T1, human cMet on cells. Put plainly: FACS, VHH-His on MKN45 cells. The source holds these as a separate data set.
Test [10] deals with T2, Cynomolgus monkey cMet antigen. The test can be described thus: SPR method I, antigen on CM5 chip, VHH-His injected, 1:1 model. A general note: In SPR one partner is held on a chip, and binding of the other changes the refractive index at the surface.
Test [11] addresses T3, Human cMet antigen. The test is described as above.
For test [12], the target named is T1, human cMet on cells. The test can be described thus: FACS, VHH-His on CHOK1-hucMet cells. The source holds these as a separate data set.
The target in test [13] is T1, human cMet on cells. Put plainly: FACS, VHH-His on EBC-1 cells (cell column empty in this row).
Test [14] addresses T2, Cynomolgus monkey cMet antigen. Put plainly: SPR method II, antibody captured on Protein A chip, antigen injected, 1:1 model.
Test [15] addresses T3, Human cMet antigen. The test is described as above.
The target of test [16] is Human EGFR antigen (SPR of Example 4.4) (human, UniProt P00533 25-645). The description is as above.
Test [17] has as its target Cyno EGFR antigen (SPR of Example 4.4) (cynomolgus monkey, UniProt A0A2K5WK39 25-645). The description is as above.

Numbering of substitutions follows the chain as printed.

The term IC50 denotes the concentration at which inhibition is half-maximal. Usually EC50 stands for the concentration at which the effect is half-maximal. Broadly, the Kd is the constant that tells how readily two partners part at equilibrium. What is called koff is the first-order rate constant of dissociation. The kon is the second-order rate constant of association.

T1 sequence (P08581 25-1390): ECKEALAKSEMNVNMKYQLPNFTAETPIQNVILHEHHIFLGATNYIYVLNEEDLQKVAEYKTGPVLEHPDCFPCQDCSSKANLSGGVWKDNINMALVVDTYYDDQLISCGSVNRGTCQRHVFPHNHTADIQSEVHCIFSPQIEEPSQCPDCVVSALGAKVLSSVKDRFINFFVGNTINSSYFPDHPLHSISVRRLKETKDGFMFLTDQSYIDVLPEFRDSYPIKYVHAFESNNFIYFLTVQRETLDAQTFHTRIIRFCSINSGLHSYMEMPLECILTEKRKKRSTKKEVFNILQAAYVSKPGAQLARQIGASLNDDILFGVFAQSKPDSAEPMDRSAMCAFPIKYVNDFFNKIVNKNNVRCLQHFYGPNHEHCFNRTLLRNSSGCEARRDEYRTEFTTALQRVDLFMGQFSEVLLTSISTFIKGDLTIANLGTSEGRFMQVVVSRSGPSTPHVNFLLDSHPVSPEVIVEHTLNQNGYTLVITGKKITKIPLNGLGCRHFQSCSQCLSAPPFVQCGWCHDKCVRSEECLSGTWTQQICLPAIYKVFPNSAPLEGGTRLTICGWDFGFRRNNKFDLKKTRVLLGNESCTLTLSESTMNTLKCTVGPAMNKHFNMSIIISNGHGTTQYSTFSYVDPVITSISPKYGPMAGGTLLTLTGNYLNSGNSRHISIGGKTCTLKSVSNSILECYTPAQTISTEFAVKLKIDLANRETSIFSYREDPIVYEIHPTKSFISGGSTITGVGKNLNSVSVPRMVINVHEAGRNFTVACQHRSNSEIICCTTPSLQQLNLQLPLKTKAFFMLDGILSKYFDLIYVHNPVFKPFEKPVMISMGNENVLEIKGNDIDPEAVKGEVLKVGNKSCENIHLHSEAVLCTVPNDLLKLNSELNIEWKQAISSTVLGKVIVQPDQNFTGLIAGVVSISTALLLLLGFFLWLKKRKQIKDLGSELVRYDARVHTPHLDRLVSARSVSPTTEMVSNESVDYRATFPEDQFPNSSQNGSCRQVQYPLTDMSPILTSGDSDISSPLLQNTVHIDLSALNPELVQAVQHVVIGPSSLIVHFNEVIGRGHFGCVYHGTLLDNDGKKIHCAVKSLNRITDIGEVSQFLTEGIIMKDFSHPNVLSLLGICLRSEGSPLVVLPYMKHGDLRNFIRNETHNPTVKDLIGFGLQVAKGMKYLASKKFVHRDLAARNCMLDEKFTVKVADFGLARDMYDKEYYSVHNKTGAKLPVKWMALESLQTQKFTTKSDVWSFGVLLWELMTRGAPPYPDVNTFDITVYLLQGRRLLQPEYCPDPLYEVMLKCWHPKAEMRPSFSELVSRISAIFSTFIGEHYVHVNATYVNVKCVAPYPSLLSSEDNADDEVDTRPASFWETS
T2 sequence (A0A2K5UM36 entry or part of it limits assumed, form in doubt): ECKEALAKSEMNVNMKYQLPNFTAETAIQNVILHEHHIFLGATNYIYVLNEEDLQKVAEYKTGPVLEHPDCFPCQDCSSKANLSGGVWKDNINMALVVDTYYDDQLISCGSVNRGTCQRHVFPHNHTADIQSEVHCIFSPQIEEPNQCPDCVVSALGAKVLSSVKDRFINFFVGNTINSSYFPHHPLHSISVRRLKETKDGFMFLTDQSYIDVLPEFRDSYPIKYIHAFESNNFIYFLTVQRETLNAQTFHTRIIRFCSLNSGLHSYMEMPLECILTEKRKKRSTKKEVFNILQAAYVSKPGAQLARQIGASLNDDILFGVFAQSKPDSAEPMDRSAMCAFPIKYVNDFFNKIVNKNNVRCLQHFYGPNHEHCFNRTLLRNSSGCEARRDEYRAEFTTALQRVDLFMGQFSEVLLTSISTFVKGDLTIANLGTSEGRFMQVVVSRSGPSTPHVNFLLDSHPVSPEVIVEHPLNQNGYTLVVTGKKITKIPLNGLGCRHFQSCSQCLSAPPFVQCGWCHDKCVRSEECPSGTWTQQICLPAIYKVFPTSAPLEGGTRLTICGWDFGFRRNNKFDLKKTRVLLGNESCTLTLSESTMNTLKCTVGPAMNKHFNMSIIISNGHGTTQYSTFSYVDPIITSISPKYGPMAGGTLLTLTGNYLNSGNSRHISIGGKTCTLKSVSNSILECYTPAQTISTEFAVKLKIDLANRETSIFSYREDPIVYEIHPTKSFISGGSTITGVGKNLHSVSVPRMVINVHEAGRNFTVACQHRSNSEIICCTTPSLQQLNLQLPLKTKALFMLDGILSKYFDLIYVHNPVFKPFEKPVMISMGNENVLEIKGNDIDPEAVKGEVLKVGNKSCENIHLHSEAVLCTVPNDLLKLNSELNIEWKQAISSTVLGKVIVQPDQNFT
T3 sequence (P08581 25-932): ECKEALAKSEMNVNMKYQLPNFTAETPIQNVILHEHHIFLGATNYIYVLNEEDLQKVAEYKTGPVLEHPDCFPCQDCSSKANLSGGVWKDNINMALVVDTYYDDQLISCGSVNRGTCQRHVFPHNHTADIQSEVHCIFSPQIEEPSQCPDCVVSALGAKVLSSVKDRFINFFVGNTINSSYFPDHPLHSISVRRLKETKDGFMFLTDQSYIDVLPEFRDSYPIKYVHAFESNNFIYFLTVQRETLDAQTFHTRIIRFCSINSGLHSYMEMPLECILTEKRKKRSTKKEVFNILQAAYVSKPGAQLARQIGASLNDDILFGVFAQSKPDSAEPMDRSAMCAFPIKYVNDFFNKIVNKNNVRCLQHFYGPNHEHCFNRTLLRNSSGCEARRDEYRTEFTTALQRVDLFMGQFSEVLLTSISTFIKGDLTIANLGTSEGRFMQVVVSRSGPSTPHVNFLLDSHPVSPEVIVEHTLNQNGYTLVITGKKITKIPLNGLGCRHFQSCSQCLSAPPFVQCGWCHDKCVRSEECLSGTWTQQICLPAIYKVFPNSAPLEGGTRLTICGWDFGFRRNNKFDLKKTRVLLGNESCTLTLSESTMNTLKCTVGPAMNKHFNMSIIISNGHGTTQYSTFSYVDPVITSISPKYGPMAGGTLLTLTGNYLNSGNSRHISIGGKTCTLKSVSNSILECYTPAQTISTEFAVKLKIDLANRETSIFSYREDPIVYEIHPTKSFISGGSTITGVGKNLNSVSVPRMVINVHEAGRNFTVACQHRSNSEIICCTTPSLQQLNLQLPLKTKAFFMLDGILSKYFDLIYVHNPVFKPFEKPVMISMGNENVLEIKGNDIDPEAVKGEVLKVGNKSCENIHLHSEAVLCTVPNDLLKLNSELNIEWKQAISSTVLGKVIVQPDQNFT

ABBV399 [reference compound] showed an IC50 in test [1] of 0.194 nM.

B1: V-n7A12 anti-cMet VHH-Fc (Fc fusion, not shown: a dimerising Fc or GST)
chain: EVQLVESGGGLVQAGGSLRLSCVASGNIFSSNHMGWFRQAPGKQREFIAYITTREITNYADSVKGRFTISRDNTKNTVYLQMNVLKPEDTAVYYCIADQSREIRRSWGQGTQVTVSS
notes: Bivalent VHH-Fc
For the molecule B1, the MFI value at the highest concentration in test [2] was determined as 40600 MFI. The ratio of MFI value at the highest concentration to that at the lowest concentration in test [2] came out at 2.22. The EC50 in test [3] was 0.063 nM; in [4] it was 0.066 nM.

B2: 7A12-M3 (VHH, not shown: small tags and cut ends)
VHH: B1 chain with V12I, A14P, V23T, R45L, F47W, T74S, V84N, K86R, P87S
Regarding B2, in test [5], the Maximum MFI value is 57400 MFI.

B3: anti-cMet biepitopic M-1 molecule (bispecific antibody, V domains shown)
V domain 1: QSQLAESGGGLVQSGGSLGLSCVASGFTISRSIMSWYRQPPGKERDWVASIGSAGNTNYVDSVKGRFTISRDVAKNTVYLQMNSLKPEDTAVYYCKTTLAVSFSEYWGQGTQVTVSS
V domain 2: B1 chain with V12I, V23T, N32Y, T74S, V84N, K86R, P87S, Q112L
notes: Asymmetric double-chain form
Take B3: the binding result in test [6] is “binds”.

B4: dpzn7A12m4.ml_1.m1 (VHH, not shown: small tags and cut ends)
VHH: B1 chain with A14P, V23T, N32Y, T74S, V78L, V84S, K86R, P87A, Q112L
notes: Humanized + PTM removal + secondary immunogenicity removal, anti-cMet VHH-His; also called hu7A12
In test [7], B4 displayed an EC50 of 2.1 nM.

B5: V-n7A12 anti-cMet VHH-His (VHH, not shown: small tags and cut ends)
VHH: B1 chain
notes: Monovalent parent VHH
Take B5: the EC50 in test [8] was 3.76 nM; in test [9], 3.76 nM; in test [7], 1.94 nM; in [12], 1.01 nM. Also, the “Maximum MFI value” in [8] was 35600 MFI; in test [9], 35600 MFI; in [12], 74200 MFI. For the same molecule, the Kd in test [10] stood at 96 nM; in test [11], 0.301 nM. Moreover, the koff in test [10] was determined as 0.00439 s⁻¹; in test [11], 0.000153 s⁻¹. Moreover, the kon in test [10] was determined as 45800 M⁻¹ s⁻¹; in [11] it was 509000 M⁻¹ s⁻¹.

B6: V-n9A2 anti-cMet VHH-Fc (Fc fusion, not shown: a dimerising Fc or GST)
chain: B3 V domain 1
notes: Bivalent VHH-Fc
As to B6, in test [2], the MFI value at the highest concentration was 82200 MFI and the ratio of MFI value at the highest concentration to that at the lowest concentration is 1.12. The EC50 in [3] stood at 0.105 nM. The molecule also displayed an EC50 in test [4] of 0.108 nM.

B7: VHH11 (VHH, not shown: small tags and cut ends)
VHH: B3 V domain 1 with A5V, Q13K, S14P, G19R, V73N, T77S, V78L, K86R, P87A, Q112L
notes: Humanized 9A2 anti-cMet VHH-His
B7 registered an EC50 in test [13] of 2.11 nM.

B8: 7A12-M2 (VHH, not shown: small tags and cut ends)
VHH: EVQLVESGGGLIQPGGSLRLSCKASGNIFSSNHMGWFRQAPGKQLEWVAYITTREITNYADSVKGRFTISRDNSKNTVYLQMNNLRSEDTAVYYCIADQSREIRRSWGQGTLVTVSS
On to B8, for which the Maximum MFI value in test [5] amounted to 36700 MFI.

B9: Reference benchmark antibody ABT-700 (antibody, V domains shown)
VH: QVQLVQSGAEVKKPGASVKVSCKASGYIFTAYTMHWVRQAPGQGLEWMGWIKPNNGLANYAQKFQGRVTMTRDTSISTAYMELSRLRSDDTAVYYCARSEITTEFDYWGQGTLVTVSS
VL: DIVMTQSPDSLAVSLGERATINCKSSESVDSYANSFLHWYQQKPGQPPKLLIYRASTRESGVPDRFSGSGSGTDFTLTISSLQAEDVAVYYCQQSKEDPLTFGGGTKVEIKR
In [14], B9 yielded a Kd of 0.584 nM, a koff of 7.14e-05 s⁻¹ and a kon of 122000 M⁻¹ s⁻¹. For the same molecule, in [15], the Kd was 0.681 nM, the koff amounted to 7.38e-05 s⁻¹ and the kon came out at 108000 M⁻¹ s⁻¹.

B10: V-F42 (hu9B8_Fc)2 (Fc fusion, not shown: a dimerising Fc or GST)
chain: EVQLLESGGGLVQPGGSLRLSCAASGLTFSYYAMAWFRQAPGKEREFVAAINWNQGNTYNTDSVKGRFTISRDNSKNTVYLQMNSLTPEDTAVYYCAVRYNQASYLVARSSDYNYWGQGTLVTVSS
notes: dimeric VHH with an Fc tag at the C-terminus
With B10, in test [16], the affinity, expressed as Kd, was 11.9 nM; the koff stood at 0.000392 s⁻¹; the kon worked out at 33000 M⁻¹ s⁻¹. In [17], the Kd was 2.05 nM, the koff was determined as 8.04e-05 s⁻¹ and the kon came to 39200 M⁻¹ s⁻¹.
